In assay [1] the target is T1, prefusion-stabilized HKU1 S ectodomain trimer (Human coronavirus HKU1, isolate not …, UniProt Q5MQD0, stabilised). Briefly: ELISA. Conditions: both partners purified. In general terms: In an ELISA, binding on a coated surface is turned into a signal by an enzyme label.
In assay [2] the target is SARS-CoV-2 or SARS-CoV stem helix peptide (SARS-CoV-2; region stated to be …, biotin). Briefly: BLI. Particulars: both partners purified.
The target of assay [3] is prefusion-stabilized OC43 S ectodomain trimer (Human coronavirus OC43, isolate not …, UniProt P36334, stabilised). In words: cell-based or functional assay.
The target of assay [4] is T1, prefusion-stabilized HKU1 S ectodomain …. In words: SPR; S2P6 Fab fragment and S glycoproteins (fig. S1, G and H). Particulars: both partners purified. A general note: SPR reads the build-up and loss of mass on a sensor chip optically.

B1: S2P6 monoclonal antibody (antibody, V domains shown)
VH: EVQLVQSGAEVKKPGASVKVSCKASGYTFTSQYMHWVRQAPGQGLEWIGIINPSGVHTSYAQKFQGRVTLTRDTSTSTLYMELSSLRSEDTAVYYCARGSPKGAFDYWGQGTLVTVSS
VL: not shown
notes: also called S2P6 mAb; S2P6 IgG; copies: 2 + 2
Consider B1, for which the binding result in assay [1] and in assay [2] was “binds” throughout. Further, the “neutralization of VSV pseudotyped with OC43 S, IC50” value in assay [3] was 1.3 µg/mL.

B2: S2P6 Fab fragment (Fab, V domains shown)
VH: EVQLVQSGAEVKKPGASVKVSCKASGYTFTSQYMHWVRQAPGQGLEWIGIINPSGVHTSYAQKFQGRVTLTRDTSTSTLYMELSSLRSEDTAVYYCARGSPKGAFDYWGQGTLVTVSS
VL: not shown
In the case of B2, in assay [4], the Kd (commonly a measure of binding affinity in units of concentration) is ~120 nM.
